According to patent US20190388508A1:

Assays:
TNFR2, P20333 [1] = target: T1, TNFR2, P20333; test: method not stated; details: remark: other sources report otherwise
T1 chain: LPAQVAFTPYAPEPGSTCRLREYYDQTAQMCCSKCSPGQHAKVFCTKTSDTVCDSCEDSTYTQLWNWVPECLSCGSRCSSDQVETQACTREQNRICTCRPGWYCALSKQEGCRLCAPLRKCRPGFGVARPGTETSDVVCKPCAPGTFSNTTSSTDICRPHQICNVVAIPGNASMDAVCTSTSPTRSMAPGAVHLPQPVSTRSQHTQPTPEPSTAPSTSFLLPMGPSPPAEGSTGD

TNFR2, P20333 [2] = target: T1, TNFR2, P20333; test: method not stated; reference TNFα; details: remark: other sources report otherwise

B1: Progranulin (PGRN), P28799 18-593 (ligand)
chain: TRCPDGQFCPVACCLDPGGASYSCCRPLLDKWPTTLSRHLGGPCQVDAHCSAGHSCIFTVSGTSSCCPFPEAVACGDGHHCCPRGFHCSADGRSCFQRSGNNSVGAIQCPDSQFECPDFSTCCVMVDGSWGCCPMPQASCCEDRVHCCPHGAFCDLVHTRCITPTGTHPLAKKLPAQRTNRAVALSSSVMCPDARSRCPDGSTCCELPSGKYGCCPMPNATCCSDHLHCCPQDTVCDLIQSKCLSKENATTDLLTKLPAHTVGDVKCDMEVSCPDGYTCCRLQSGAWGCCPFTQAVCCEDHIHCCPAGFTCDTQKGTCEQGPHQVPWMEKAPAHLSLPDPQALKRDVPCDNVSSCPSSDTCCQLTSGEWGCCPIPEAVCCSDHQHCCPQGYTCVAEGQCQRGSEIVAGLEKMPARRASLSHPRDIGCDQHTSCPVGQTCCPSLGGSWACCQLPHAVCCEDRQHCCPAGYTCNVKARSCEKEVVSAQPATFLARSPHVGVKDVECGEGHFCHDNQTCCRDNRQGWACCPYRQGVCCADRRHCCPAGFRCAARGTKCLRREAPRWDAPLRDPALRQLL
- Kd (TNFR2, P20333 [1]): 1.52 nM
- fold higher binding affinity than TNFα (TNFR2, P20333 [2]): 600 fold
